Assay [1] addresses HLA-A1-TITIN pMHC (human). Nature of the assay: SPR, biotinylated HLA-A1-TITIN on streptavidin chip, soluble TCR flowed. For orientation: In SPR one partner is held on a chip, and binding of the other changes the refractive index at the surface.
In assay [2] the target is HLA-A1-MAGE-A3 pMHC (human). Briefly: SPR, biotinylated HLA-A1-MAGE-A3 on streptavidin chip, soluble TCR flowed.

B1: A3A TCR (TCR, V domains shown)
V domain 1: KQEVTQIPAALSVPEGENLVLNCSFTDSAIYNLQWFRQDPGKGLTSLLLVRPYQREQTSGRLNASLDKSSGRSTLYIAASQPGDSATYLCAVRPGGAGSYQLTFGKGTKLSVIP
V domain 2: KAGVTQTPRYLIKTRGQQVTLSCSPISGHRSVSWYQQTPGQGLQFLFEYFSETQRNKGNFPGRFSGRQFSNSRSEMNVSTLELGDSALYLCASSPNMADEQYFGPGTRLTVTE
Turning to B1, the Kd in assay [1] is 7.7 µM; in assay [2], 1240 nM.

The Kd is the free concentration of one partner at which half of the binding sites on the other are occupied at equilibrium, for simple one-to-one binding.

For the origin of these results see patent US20240299546A1.
